From publication PMC139967 (BMC Biochemistry, 2002)

How the values were obtained:
bovine-brain calmodulin = bovine-brain calmodulin (bovine, UniProt P62157 1-149); experiment: other fluorescence titration
[1] = biological target: Alexa Fluor 488 calmodulin (UniProt P62157 1-149); experiment: other fluorescence titration

Which “stoichiometry N” value (bovine-brain calmodulin) does the source give for CKRKWAVDVVRRFIKGFIYRNQPR [bullfrog Myo1c IQ3 peptide] here?
Its value is 1 peptide per calmodulin.

And the Kd [1]?
Its Kd is 2000 nM.

For CRKHSIATFLQARWRGYHQRQKFL [bullfrog Myo1c IQ1 peptide], which “stoichiometry N” value (bovine-brain calmodulin) is on record?
Its value is 1 peptide per calmodulin.

CHMKHSAVEIQSWWRGTIGRRKAA [bullfrog Myo1c IQ2 peptide] was tested. Which “stoichiometry N” value (bovine-brain calmodulin) did it give?
The value was 1 peptide per calmodulin.
